Test results published in US20210024639A1 (AGOMAB THERAPEUTICS, published 2021).

What was measured:
[1] = molecular target: T1, native mouse MET on living mouse cells (mouse, UniProt P16056 25-1379); assay: flow cytometry, MLP29 cells
T1 construct: whole, on cells; also called Mouse cells (MLP29)
Experimental: (§1) We also analysed whether chimeric anti-MET antibodies bound to native human and mouse MET in living cells. […] Antibody binding to cells was analysed by flow cytometry using phycoerythrin-conjugated anti-human IgG1 antibodies (eBioscience) and a CyAn ADP analyser (Beckman Coulter). As a positive control for human MET binding, we used a commercial mouse anti-human MET antibody (R&D Systems) and phycoerythrin-conjugated anti-mouse IgG1 antibodies (eBioscience). As a positive control for mouse MET binding we used a commercial goat anti-mouse MET antibody (R&D Systems) and phycoerythrin-conjugated anti-goat IgG1 antibodies (eBioscience). […] Consistent with the data obtained in ELISA, maximal binding (EMAX) varied depending on antibody, but was similar in human and mouse cells.

[2] = molecular target: T2, native human MET on living human cells (human, UniProt P08581 25-1390); assay: flow cytometry, A549 cells
T2 construct: whole, on cells; also called Human cells (A549); HPAF-II
Experimental: as §1

[3] = molecular target: T3, human MET-Fc chimeric protein (R&D Systems) (human, UniProt P08581 25-932); assay: competition ELISA, hMET-Fc in solid phase, competitor 0.3 nM biotinylated hHGF
T3 construct: extracellular domain; bought (R&D Systems); also called hMET; not shown: Fc portion of human IgG1
Experimental: (§2) To investigate along this line, we tested the competition between mAbs and HGF by ELISA. Recombinant human and mouse HGF (R&D Systems) were biotinylated at the N-terminus using NHS-LC-biotin (Thermo Scientific). MET-Fc protein, either human or mouse (R&D Systems), was immobilized in solid phase and then exposed to 0.3 nM biotinylated HGF, either human or mouse, in the presence of increasing concentrations of antibodies (0-120 nM).
(§3) A MET-Fc chimeric protein (either human or mouse) was immobilized in solid phase and exposed to a fixed concentration of biotinylated HGF (either human or mouse), in the presence of increasing concentrations of antibodies. […] Antibody-HGF competition is expressed as IC₅₀ (the concentration that achieves 50% competition) and IMAX (the maximum % competition reached at saturation).

[4] = molecular target: T2, native human MET on living human cells; assay: cell-based or functional assay
[5] = molecular target: T1, native mouse MET on living mouse cells; assay: cell-based or functional assay
[6] = molecular target: T4, mouse MET-Fc chimeric protein (R&D Systems) (mouse, UniProt P16056 25-929, limits assumed); assay: competition ELISA, mMET-Fc in solid phase, competitor 0.3 nM biotinylated mHGF
T4 construct: bought (R&D Systems); also called mMET; not shown: Fc
Experimental: as §2, §3

[7] = molecular target: T2, native human MET on living human cells; assay: cell-based or functional assay; remark: listed apart in the source
[8] = molecular target: T1, native mouse MET on living mouse cells; assay: cell-based or functional assay; remark: listed apart in the source
[9] = molecular target: T5, human MET extracellular domain (ECD) (human, UniProt P08581 25-932); assay: ELISA, periplasmic Fab on MET ECD
T5 construct: range 1-932; recombinant ECD; also called hMET; human MET ECD
Experimental: Fab-expressing phages from the libraries described above were produced according to standard phage display protocols. For selection, phages were first adsorbed to immobilized recombinant human MET ECD, washed, and then eluted using trypsin. After two cycles of selection with human MET ECD, two other cycles were performed in the same fashion using mouse MET ECD. In parallel, we also selected phages alternating a human MET ECD cycle with a mouse MET ECD cycle, for a total of four cycles. Phages selected by the two approaches were pooled together and then used to infect TG1 E. coli. Individual colonies were isolated and secretion of Fabs was induced using IPTG (Fermentas). The Fab-containing periplasmic fraction of bacteria was collected and tested for its ability to bind human and mouse MET ECD by Surface Plasmon Resonance (SPR). Human or mouse MET ECD was immobilized on a CM-5 chip using amine coupling in sodium acetate buffer (GE Healthcare). The Fab-containing periplasmic extracts were loaded into a BIACORE 3000 apparatus (GE Healthcare) with a flow rate of 30 μl/min. The Fab off-rates (koff) were measured over a two minute period. Binding of Fabs to human and mouse MET was further characterized by ELISA using MET ECD in solid phase and periplasmic crude extract in solution.
TABLE 7 Fabs binding to both human MET (hMET) and mouse MET (mMET). Fabs are grouped in families based on their VH CDR3 sequence. Binding of Fabs to human and mouse MET ECD was determined by Surface Plasmon Resonance (SPR) and by ELISA. SPR values represent the koff (s⁻¹). ELISA values represent the Optical Density (OD) at 450 nm (AU, arbitrary units). Both SPR and ELISA were performed using crude periplasmic extracts. Fab concentration in the extract was not determined. Values are the mean of three independent measurements.

T2 sequence (P08581 25-1390): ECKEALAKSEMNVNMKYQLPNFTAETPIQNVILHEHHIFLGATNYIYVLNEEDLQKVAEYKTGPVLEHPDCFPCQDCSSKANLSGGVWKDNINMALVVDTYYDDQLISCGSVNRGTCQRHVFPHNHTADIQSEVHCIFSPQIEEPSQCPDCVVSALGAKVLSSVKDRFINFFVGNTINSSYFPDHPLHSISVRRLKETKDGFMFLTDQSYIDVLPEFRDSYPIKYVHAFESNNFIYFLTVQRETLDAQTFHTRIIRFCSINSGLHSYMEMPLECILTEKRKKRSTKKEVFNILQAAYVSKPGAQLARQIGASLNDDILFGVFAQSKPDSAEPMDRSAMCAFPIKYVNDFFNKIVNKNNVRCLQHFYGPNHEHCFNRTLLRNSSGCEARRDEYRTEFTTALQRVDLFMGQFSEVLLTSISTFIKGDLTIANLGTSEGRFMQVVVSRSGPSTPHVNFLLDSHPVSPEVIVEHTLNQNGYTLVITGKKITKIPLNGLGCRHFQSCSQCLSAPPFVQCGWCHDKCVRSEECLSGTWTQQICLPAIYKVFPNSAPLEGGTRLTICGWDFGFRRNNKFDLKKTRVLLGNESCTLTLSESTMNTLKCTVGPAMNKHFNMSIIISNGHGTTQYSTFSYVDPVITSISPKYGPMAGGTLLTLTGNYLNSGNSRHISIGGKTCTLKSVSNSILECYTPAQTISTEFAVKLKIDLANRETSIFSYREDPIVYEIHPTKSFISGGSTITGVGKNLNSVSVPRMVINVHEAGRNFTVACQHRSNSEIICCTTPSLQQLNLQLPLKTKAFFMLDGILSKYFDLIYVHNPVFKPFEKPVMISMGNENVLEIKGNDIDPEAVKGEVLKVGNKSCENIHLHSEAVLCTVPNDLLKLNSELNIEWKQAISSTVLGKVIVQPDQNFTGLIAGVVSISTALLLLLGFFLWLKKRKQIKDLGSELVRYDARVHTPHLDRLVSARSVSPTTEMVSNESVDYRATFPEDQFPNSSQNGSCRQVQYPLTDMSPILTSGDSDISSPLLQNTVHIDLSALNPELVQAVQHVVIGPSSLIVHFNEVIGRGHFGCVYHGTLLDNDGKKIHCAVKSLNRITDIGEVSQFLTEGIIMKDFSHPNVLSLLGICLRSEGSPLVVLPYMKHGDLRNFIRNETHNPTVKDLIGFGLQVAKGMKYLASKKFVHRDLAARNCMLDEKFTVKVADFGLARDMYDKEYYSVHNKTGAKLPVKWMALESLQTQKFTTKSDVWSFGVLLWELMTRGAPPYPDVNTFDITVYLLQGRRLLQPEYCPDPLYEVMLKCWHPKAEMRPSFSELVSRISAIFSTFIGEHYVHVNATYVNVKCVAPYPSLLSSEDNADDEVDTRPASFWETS
T3 sequence (P08581 25-932, change not shown): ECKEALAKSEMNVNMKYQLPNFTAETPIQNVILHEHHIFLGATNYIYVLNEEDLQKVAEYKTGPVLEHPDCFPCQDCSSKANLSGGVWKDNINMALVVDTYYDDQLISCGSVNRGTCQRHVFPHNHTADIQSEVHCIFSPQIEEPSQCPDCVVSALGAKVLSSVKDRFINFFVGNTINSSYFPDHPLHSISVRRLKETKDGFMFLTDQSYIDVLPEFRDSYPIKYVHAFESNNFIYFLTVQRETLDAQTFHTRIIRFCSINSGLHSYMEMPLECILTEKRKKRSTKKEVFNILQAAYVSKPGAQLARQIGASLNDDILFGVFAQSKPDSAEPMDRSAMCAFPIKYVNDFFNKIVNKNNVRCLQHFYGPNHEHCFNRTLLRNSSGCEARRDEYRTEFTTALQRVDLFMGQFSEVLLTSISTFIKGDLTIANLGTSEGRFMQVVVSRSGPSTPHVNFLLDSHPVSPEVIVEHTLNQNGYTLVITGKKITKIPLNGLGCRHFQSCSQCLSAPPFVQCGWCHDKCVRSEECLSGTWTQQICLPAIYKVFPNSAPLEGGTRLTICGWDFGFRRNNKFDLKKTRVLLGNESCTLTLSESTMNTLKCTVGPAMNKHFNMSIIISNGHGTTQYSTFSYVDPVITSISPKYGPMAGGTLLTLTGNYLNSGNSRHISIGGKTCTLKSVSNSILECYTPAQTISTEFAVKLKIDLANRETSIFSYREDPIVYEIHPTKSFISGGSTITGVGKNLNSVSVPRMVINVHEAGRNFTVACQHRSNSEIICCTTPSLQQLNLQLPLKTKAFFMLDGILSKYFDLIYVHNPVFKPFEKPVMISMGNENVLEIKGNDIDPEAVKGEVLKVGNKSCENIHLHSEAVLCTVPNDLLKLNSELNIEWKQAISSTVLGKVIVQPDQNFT
T5 sequence (P08581 25-932 limits assumed, form in doubt): as the sequence (P08581 25-932, change not shown) above

| Binder | EMAX (% relative to control) [1] [%] | EMAX (% relative to control) [2] [%] | IMAX (maximum % competition) [3] [%] | protection from staurosporine, viability EC50, MCF10A [4] [nM] | protection from staurosporine, viability EMAX, MCF10A [4] [%] | protection from staurosporine, viability EC50, MLP29 [5] [nM] | protection from staurosporine, viability EMAX, MLP29 [5] [%] | IMAX (maximum % competition) [6] [%] | cell scattering score, HPAF-II, 0.001 nM [7] [score 0-4] | cell scattering score, HPAF-II, 0.004 nM [7] [score 0-4] | cell scattering score, HPAF-II, 0.012 nM [7] [score 0-4] | cell scattering score, MLP29, 0.001 nM [8] [score 0-4] | cell scattering score, MLP29, 0.004 nM [8] [score 0-4] | cell scattering score, MLP29, 0.012 nM [8] [score 0-4] | cell scattering score, MLP29, 0.037 nM [8] [score 0-4] | cell scattering score, MLP29, 0.111 nM [8] [score 0-4] | cell scattering score, MLP29, 0.333 nM [8] [score 0-4] | cell scattering score, MLP29, 1.000 nM [8] [score 0-4] | cell scattering score, MLP29, 3.000 nM [8] [score 0-4] | cell scattering score, MLP29, 9.000 nM [8] [score 0-4] | further results |
| --- | --- | --- | --- | --- | --- | --- | --- | --- | --- | --- | --- | --- | --- | --- | --- | --- | --- | --- | --- | --- | --- |
| chimeric llama-human IgG1 mAb 76G7 (antibody, V domains shown) VH: QVQLVESGGNLVQPGGSLRLSCAASGFTFSNYYMSWVRQAPGKGLEWVSDIYSDGSTTWYSDSVKGRFTISRDNAKNTLSLQMNSLKSEDTAVYYCARVKIYPGGYDAWGQGTQVTVSS VL: QAGLTQPPSVSGSPGKTVTISCAGNSSDVGYGNYVSWYQQFPGMAPKLLIYLVNKRASGITDRFSGSKSGNTASLTISGLQSEDEADYYCASYTGSNNIVFGGGTHLTVL | 115 | 121 | 69.4 | 25.4 | 51.9 | 30.1 | 50.2 | 62.5 | 0 | 0 | 0 | 0 | 0 | 0 | 0 | 0 | 0 | 1 | 2 | 3 | cell scattering score, HPAF-II, 0.037 nM [7]: 0 score 0-4; cell scattering score, HPAF-II, 0.111 nM [7]: 0 score 0-4; cell scattering score, HPAF-II, 0.333 nM [7]: 0 score 0-4; cell scattering score, HPAF-II, 1.000 nM [7]: 1 score 0-4; cell scattering score, HPAF-II, 3.000 nM [7]: 2 score 0-4; cell scattering score, HPAF-II, 9.000 nM [7]: 3 score 0-4 |
| chimeric llama-human IgG1 mAb 71G12 (antibody, V domains shown) VH: QVQLQESGGDLVQPGGSLRVSCVVSGFTFSRYYMSWVRQAPGKGLEWVSSIDSYGYSTYYTDSVKGRFTISRDNAKNTLYLQMNSLKPEDTALYYCARAKTTWSYDYWGQGTQVTVSS VL: EIVLTQSPSSVTASVGGKVTINCKSSQSVFIASNQKTYLNWYQQRPGQSPRLVISYASTRESGIPDRFSGSGSTTDFTLTISSVQPEDAAVYYCQQAYSHPTFGQGTKVELK | 121 | 110 | 51.4 | > 32 | 39.4 | > 32 | 39.7 | 50.7 | 0 | 0 | 0 | 0 | 0 | 0 | 0 | 0 | 1 | 2 | 2 | 3 | cell scattering score, HPAF-II, 0.037 nM [7]: 0 score 0-4; cell scattering score, HPAF-II, 0.111 nM [7]: 0 score 0-4; cell scattering score, HPAF-II, 0.333 nM [7]: 1 score 0-4; cell scattering score, HPAF-II, 1.000 nM [7]: 2 score 0-4; cell scattering score, HPAF-II, 3.000 nM [7]: 2 score 0-4; cell scattering score, HPAF-II, 9.000 nM [7]: 3 score 0-4 |
| chimeric llama-human IgG1 mAb 74C8 (antibody, V domains shown) VH: EVQLVESGGGLVQPGGSLRLSCAASGFTFRNYHMSWVRQVPGKGFEWISDINSAGGSTYYADSVKGRFTISRDNAKNTLYLEMNSLKPEDTALYYCARVNVWGVNYWGKGTLVSVSS VL: QTVVTQEPSLSVSPGGTVTLTCGLSSGSVTTSNYPGWFQQTPGQAPRTLIYNTNSRHSGVPSRFSGSISGNKAALTITGAQPEDEADYYCSLYPGSYTNVFGGGTHLTVL | 73.8 | 85.7 | 76.9 | > 32 | 41.7 | > 32 | 37.5 | 71.5 | 0 | 0 | 0 | 0 | 0 | 0 | 1 | 2 | 3 | 3 | 4 | 4 | cell scattering score, HPAF-II, 0.037 nM [7]: 1 score 0-4; cell scattering score, HPAF-II, 0.111 nM [7]: 2 score 0-4; cell scattering score, HPAF-II, 0.333 nM [7]: 3 score 0-4; cell scattering score, HPAF-II, 1.000 nM [7]: 3 score 0-4; cell scattering score, HPAF-II, 3.000 nM [7]: 4 score 0-4; cell scattering score, HPAF-II, 9.000 nM [7]: 4 score 0-4 |
| recombinant mouse HGF (R&D Systems) (ligand, UniProt Q08048 33-728, looked up, biotinylated at the N-terminus using NHS-LC-biotin in the competition ELISA only) QKKRRNTLHEFKKSAKTTLTKEDPLLKIKTKKVNSADECANRCIRNRGFTFTCKAFVFDKSRKRCYWYPFNSMSSGVKKGFGHEFDLYENKDYIRNCIIGKGGSYKGTVSITKSGIKCQPWNSMIPHEHSFLPSSYRGKDLQENYCRNPRGEEGGPWCFTSNPEVRYEVCDIPQCSEVECMTCNGESYRGPMDHTESGKTCQRWDQQTPHRHKFLPERYPDKGFDDNYCRNPDGKPRPWCYTLDPDTPWEYCAIKTCAHSAVNETDVPMETTECIQGQGEGYRGTSNTIWNGIPCQRWDSQYPHKHDITPENFKCKDLRENYCRNPDGAESPWCFTTDPNIRVGYCSQIPKCDVSSGQDCYRGNGKNYMGNLSKTRSGLTCSMWDKNMEDLHRHIFWEPDASKLNKNYCRNPDDDAHGPWCYTGNPLIPWDYCPISRCEGDTTPTIVNLDHPVISCAKTKQLRVVNGIPTQTTVGWMVSLKYRNKHICGGSLIKESWVLTARQCFPARNKDLKDYEAWLGIHDVHERGEEKRKQILNISQLVYGPEGSDLVLLKLARPAILDNFVSTIDLPSYGCTIPEKTTCSIYGWGYTGLINADGLLRVAHLYIMGNEKCSQHHQGKVTLNESELCAGAEKIGSGPCEGDYGGPLICEQHKMRMVLGVIVPGRGCAIPNRPGIFVRVAYYAKWIHKVILTYKL |  |  |  |  |  | 5.35 | 58.6 |  |  |  |  | 0 | 1 | 2 | 3 | 4 | 4 | 4 | 4 | 4 |  |
| Fab 71G12 (Fab, V domains shown, llama Fab (VH-CH1, kappa VL-CL) with MYC flag, crude periplasmic extract) VH: QVQLQESGGDLVQPGGSLRVSCVVSGFTFSRYYMSWVRQAPGKGLEWVSSIDSYGYSTYYTDSVKGRFTISRDNAKNTLYLQMNSLKPEDTALYYCARAKTTWSYDYWGQGTQVTVSS VL: EIVLTQSPSSVTASVGGKVTINCKSSQSVFIASNQKTYLNWYQQRPGQSPRLVISYASTRESGIPDRFSGSGSTTDFTLTISSVQPEDAAVYYCQQAYSHPTFGQGTKVELK |  |  |  |  |  |  |  |  |  |  |  |  |  |  |  |  |  |  |  |  | ELISA OD450 [9]: 0.45 AU |
